Target: the molecule itself
Test: size exclusion chromatography, Superdex 75, non-denaturing; self-association (dimerization)

B1: Mocr protein (monomeric Ocr, F53R and V77D) as produced from the pMCSG7 vector (pMocr) (other)
chain: MHHHHHHSSGVDLAMSNMTYNNVFDHAYEMLKENIRYDDIRDTDDLHDAIHMAADNAVPHYYADIRSVMASEGIDLEFEDSGLMPDTKDDIRILQARIYEQLTIDLWEDAEDLLNEYLEEVEEYEEDEEGTENLYFQSNICSG
notes: […]; The predicted molecular weight is 16.7 kDa; also called synthetic Mocr
B1: no binding.

From patent publication US20110165624A1 (REGENTS OF THEUNIVERSITY OF MICHIGAN, published 2011)
